Molecular target: pan3_drome PAN3 (UniProt Q95RR8)
Sequence (Q95RR8 whole entry): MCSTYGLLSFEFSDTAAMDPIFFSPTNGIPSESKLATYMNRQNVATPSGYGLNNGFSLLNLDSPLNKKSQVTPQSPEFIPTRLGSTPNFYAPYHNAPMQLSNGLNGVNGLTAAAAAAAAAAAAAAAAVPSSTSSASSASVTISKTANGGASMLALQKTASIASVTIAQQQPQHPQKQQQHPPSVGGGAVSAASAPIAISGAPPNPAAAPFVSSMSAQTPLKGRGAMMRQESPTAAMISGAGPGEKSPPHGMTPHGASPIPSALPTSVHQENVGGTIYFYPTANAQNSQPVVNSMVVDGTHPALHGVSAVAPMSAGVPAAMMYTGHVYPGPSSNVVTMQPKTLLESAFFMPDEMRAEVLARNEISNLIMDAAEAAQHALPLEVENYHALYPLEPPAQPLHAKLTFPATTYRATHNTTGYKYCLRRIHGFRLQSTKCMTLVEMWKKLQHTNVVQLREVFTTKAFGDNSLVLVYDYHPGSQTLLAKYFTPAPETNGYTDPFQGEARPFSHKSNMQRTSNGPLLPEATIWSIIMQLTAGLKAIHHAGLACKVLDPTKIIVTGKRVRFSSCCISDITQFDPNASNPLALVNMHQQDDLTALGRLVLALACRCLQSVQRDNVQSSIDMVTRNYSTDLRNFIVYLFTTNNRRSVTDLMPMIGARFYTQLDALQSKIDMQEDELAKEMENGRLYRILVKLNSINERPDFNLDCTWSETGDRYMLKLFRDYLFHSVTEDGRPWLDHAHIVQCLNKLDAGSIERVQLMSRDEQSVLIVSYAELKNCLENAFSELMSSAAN

Sequence of PAN2-PAN3 deadenylation complex catalytic subunit PAN2 (Drosophila melanogaster (Fruit fly)), A1Z7K9 T97R;H102G (A1Z7K9 whole entry T97R/H102G, one chain of several): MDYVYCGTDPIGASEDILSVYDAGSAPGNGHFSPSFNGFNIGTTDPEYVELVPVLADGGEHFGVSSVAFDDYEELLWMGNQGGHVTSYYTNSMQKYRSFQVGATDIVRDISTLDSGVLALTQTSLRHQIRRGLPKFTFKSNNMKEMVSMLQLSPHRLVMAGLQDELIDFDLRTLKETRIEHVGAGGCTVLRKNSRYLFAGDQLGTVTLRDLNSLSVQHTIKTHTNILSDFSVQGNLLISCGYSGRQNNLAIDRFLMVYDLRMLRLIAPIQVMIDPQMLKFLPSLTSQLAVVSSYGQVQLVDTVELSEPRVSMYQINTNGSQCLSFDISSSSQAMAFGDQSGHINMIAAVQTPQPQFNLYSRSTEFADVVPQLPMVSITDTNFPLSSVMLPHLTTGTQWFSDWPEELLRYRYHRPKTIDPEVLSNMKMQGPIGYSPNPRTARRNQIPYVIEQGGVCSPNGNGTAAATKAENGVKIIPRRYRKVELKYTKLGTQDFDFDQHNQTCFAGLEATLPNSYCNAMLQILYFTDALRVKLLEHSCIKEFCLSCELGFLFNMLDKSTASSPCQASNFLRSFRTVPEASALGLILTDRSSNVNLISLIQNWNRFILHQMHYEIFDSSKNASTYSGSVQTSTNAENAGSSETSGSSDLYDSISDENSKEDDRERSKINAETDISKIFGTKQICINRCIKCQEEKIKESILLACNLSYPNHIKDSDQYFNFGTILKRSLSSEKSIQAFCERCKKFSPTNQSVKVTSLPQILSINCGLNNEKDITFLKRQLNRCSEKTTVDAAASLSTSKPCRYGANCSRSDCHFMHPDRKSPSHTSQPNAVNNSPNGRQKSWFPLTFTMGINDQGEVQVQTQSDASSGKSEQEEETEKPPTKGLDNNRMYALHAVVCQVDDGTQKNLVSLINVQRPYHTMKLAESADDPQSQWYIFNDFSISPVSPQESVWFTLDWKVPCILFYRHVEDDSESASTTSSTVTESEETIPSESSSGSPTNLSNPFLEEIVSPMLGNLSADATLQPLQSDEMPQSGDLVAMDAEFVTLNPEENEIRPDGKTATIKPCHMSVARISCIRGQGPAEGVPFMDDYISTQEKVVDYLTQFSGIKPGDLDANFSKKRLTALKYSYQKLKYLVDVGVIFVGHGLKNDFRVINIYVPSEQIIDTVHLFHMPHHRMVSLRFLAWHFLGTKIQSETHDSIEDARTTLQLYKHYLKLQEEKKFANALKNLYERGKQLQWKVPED

effect of a mutation on the interaction: disrupting interaction strength
Substance: PAN2-PAN3 deadenylation complex catalytic subunit PAN2 (Drosophila melanogaster (Fruit fly)), A1Z7K9 T97R;H102G
